# Results taken from the RNAGym collection of RNA variant scans (doi:10.1073/pnas.2313332121).
# B1: TPR t1 (parent)
# chain: GACCAAUCUGCCCUCAGAGCUCGAGAACAUCUUCGGAUGCAGAGGAGGCAGGCUUCGGUGGCGCGAUAGCGCCAACGUCCUCAACCUCCAAUGCAUCCCACCACAUGAUGAUGCCUGAAGAGCCUUGGUUUUUUG
# Variants of: B1
# Assay: polymerase ribozyme fitness, log enrichment relative to wild type (log ratio); higher = more active; in vitro selection for triplet polymerase activity
# In short: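 Mutant libraries of each subunit of a heterodimeric triplet polymerase ribozyme were built by PCR and transcribed. Each library went through one round of in vitro selection in triplicate: annealing with biotinylated primer, partner subunit and triplets, frozen incubation at −7 °C, gel excision of extended constructs, streptavidin-bead capture and RT-PCR. Input and output libraries were Illumina-sequenced; only genotypes with ≥10 input reads and ≥1 read per output were kept. Fitness is log2(genotype enrichment/wild-type enrichment), using inverse-variance-weighted replicate averages.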
row,Variant,polymerase ribozyme fitness (log ratio)
1,GACCAAUCUGCUCUCAGAGCUCGAGAACAUCUUCGGAUGCGGAGGAGGCAGGCUUCGGUGGCGCGAUAGCGCCAACGUCCUCAACCUCCAAUGCAUCCCACCACAUGAUGAUGCCUGAAGAGCCUUGGUUUUUUG,0.638
2,GACCAAUCUGCUCUCAGAGCUCGAGAACAUCUUCGGUUGCAGAGGAGGCAGGCUUCGGUGGCGCGAUAGCGCCAACGUCCUCAACCUCCAAUGCAUCCCACCACAUGAUGAUGCCUGAAGAGCCUUGGUUUUUUG,0.327
3,GACCAAUCUGCUCUCAGAGCUCGAGAACAUCUUCGGCUGCAGAGGAGGCAGGCUUCGGUGGCGCGAUAGCGCCAACGUCCUCAACCUCCAAUGCAUCCCACCACAUGAUGAUGCCUGAAGAGCCUUGGUUUUUUG,-0.693
4,GACCAAUCUGCUCUCAGAGCUCGAGACCAUCUUCGGAUGCAGAGGAGGCAGGCUUCGGUGGCGCGAUAGCGCCAACGUCCUCAACCUCCAAUGCUUCCCACCACAUGAUGAUGCCUGAAGAGCCAUGGUUUUUUG,-3.79
5,GACCAAUCUGCUCUCAGAGCUCGAGAACAUCUUCGGAUGCCGAGGAGGCAGGCUUCGGUGGCGCGAUAGCGGCAACGUCCUCAACAUCCAAUGCAUCCCACCACAUGAAGAUGCCUGAAGAGCCUUGGUUUUUUG,-7.19
6,GACCAAUCUGCUCUCAGAGCUCGAGAACGUCUUCGGAUGCAGAGGAGGCUGGCUUCGGUGGCGCGAUAGCGCCAACGUCCUCAACCUCCAGUGCAUCCCACCACAUGAUGAUGCCUGAAGAGCCUUGGUUUUUUG,-3.08
7,GACCAAUCUGCUCUCAGAGCUCGAGAACAUCUUCGGAUGCAGAGGCGGCAGGGUUCGGUGGCGCGAUAGCGCCAACGUCCUCAACCUCCAAUGCAUCCCACCACAAGAUGAUGCCUGAAGAGCCUUGGUUUUUUG,-0.663
8,GACCAAUCUGCUCUCAGAGCUCGAGAACAUCUUCGGCUGCAGAGGUGGCAGGCUUCGGUGGCGCGAUAGCGCCAACGUCCUCAACCUCCAAUGCAUCCCACCACAUGAUGAUGCCUGAAGAGCCUUGGUUUUUUG,-1.38
9,GACCAAUCUGCUCUCAGAGCUCGAGAACUUCUUCGGAUGCAGAGGAGGCAGGGUUCGGUGGCGCGAUAGCGCCUACGUCCUCAACCUCCAAUGCAUCCCACCACAUGAUGAUGCCUGAAGAGCCUUGGUUUUUUG,-2.34
10,GACCAAUCUGCUCUCAGAGCUCGAGUAUAUCUUCGGAUGCAGAGGAGGCAGGCUUCGGUGGCGCGAUAGCGUCAACGUCCUCAACCUCCAAUGCAUCCCACCACAUGAUGAUGCCUGAAGAGGCUUGGUUUUUUG,-5.39
11,GACCAAUCUGCUCUCAGAGCUCGAGAGCAUCUUCGGAUGCAGAGGAGCCAGGCUUCGGUGGCGCGAUAGCGCCAACGUCCUCAACCUCCAAUGCAUCCCACCACAUGAUGAUGCCUGAAGAGCCUUGGUUUUUUG,-1.97
12,GACCAAUCUGCUCUCAGAGCUCGAGAACAUCUUCGGAUGCUGAGGAGGCAGGCUUCGGUGGCGCGAUAGCGGCAACGUCCUCAACCUCCAAUGCAUCCCACCACAUGAUGAUGCCUGAAGAGCCUUGGUUUUUUG,-1.1
13,GACCAAUCUGCUCUCAGAGCUCGAGAACGUCUUCGGAUGCAGAGGAGGCAGGCUUCGGUGGCGCGAUAGCGCCAACGUCCUCAACCUCCAAUGCAUCCCACCACAUGAUGAUGCCUGAAGAGCCUUGGUUUUUUG,-1.25
14,GACCAAUCUGCUCUCAGAGCUCGAGAACUUCUUCGGAUGCAGAGGAGGCAGGCUUCGGUGGCGCGAUAGCGCCAACGUCCUCAACCUCCAAUGCAUCCCACCACAUGAUGAUGCCUGAAGAGCCUUGGUUUUUUG,-2.12
15,GACCAAUCUGCUCUCAGAGCUCGAGAACAUCUUCGGCUGCAGAGGAGGCAGGCUUCGGUGGCGCGAUAGCGCCAACGUCCUCAACCUCCAAUGGAUCCCACCACAUGAUAAUGCCUGAAGAGCCUUGGUUUUUUG,-3.55
16,GACCAAUCUGCUCUCAGAGCUCGAGUACAUCUUCGGAUCCAGAGGAGGCAGGCUUCGGUGGCGCGAUAGCGCCAACGUCCUCAACCUCCAAUGCAUCCCACCACAUGAUAAUGCCUGAAGAGCCUUGGUUUUUUG,-5.25
17,GACCAAUCUGCUCUCAGAGCUCGAGAGGAUCUUCGGAUGCAGAGGAGGCAGGCUUCGGUGGCGCGAUAUCGCCAACGUCCUCAACCUCCAAUGCAUCCCACCACAUGAUGAUGCCUGAAGAGCCUUGGUUUUUUG,-2.22
18,GACCAAUCUGCUCUCAGAGCUCGAGUACAUCUUAGGAUGCAGAGGAGGCAGGCUUCGGUGGCACGAUAGCGCCAACGUCCUCAACCUCCCAUGCAUCCCACCAUAUGAUGAUCCCUGAAGAGCCUUGGUUUUUUG,-6.57
19,GACCAAUCUGCUCUCAGAGCUCGAGAACGUCUUCGGAUGCAGAGGAGGCAGGCUUCGGUGGCGCGAUAGCGCCAACGUCCUCAACCUCCAAUGCAUCCCACCACAUGAUGAUGCCUGAAGAGCCAUGGUUUUUUG,-1.53
20,GACCAAUCUGCUCUCAGAGCUCGAGAACAUCUUCGGAUGCGGAGGAGACAGGCUUCGGUGGCGCGAUAGCGCCAACGUCCUCAACUUCCAAUGCAUCCCACCACAUGAUGAUGCCUGAAGAGCCUUGGUUUUUUG,-0.927
21,GACCAAUCUGCUCUCAGAGCUCGAGUACAUCUUGGGAUGCAGAGGAGGCUGGCUUCGGUGGCGCGAUAGCGCCAACGUUCUCCAGCUCCAAUGCAUCCCACCACAUGAUACUGCCUGAAGAGCCUUGGUUUUUUG,-7.36

row,Variant,polymerase ribozyme fitness (log ratio)
1,GACCAAUCUGCUCUCAGAGCUCGAGAACAUCUUCGGAUGCUGAGGAGGCAGGCUUCGGUGGCGCGAUAGCUCCAACGUCCUCAACCUCCAAUGCAUCCCACCUCAUGAUGAUGCCUGUAGAGCCUUGGUUUUUUG,-6.98
2,GACCAAUCUGCUCUCAGAGCUCGAGAACAUCUUCGGAUGCGGAGGAGACAGGCUUCAGUGGCGCGAUAGCGCCAACGUCCUCAACUUCCAAUGCAUCCCACCACAUGAUGAUGCCUGAAGAGCCUUGGUUUUUUG,-2.63
3,GACCAAUCUGCUCUCAGAGCUCGAGUACAUCUUCGGAUGCAGAGGAGGCAGGCUUCGGUGGCGCGAUAGCGCCAACGUCCUCAACCUCCAAUGUAUCCCACCACAUGAUGAUGCCUGGAGAGCCUUGGUUUUUUG,-2.71
4,GACCAAUCUGCUCUCAGAGCUCGAGAACAUCUUCGGAUGCAGGGGAGGCAGGCUUCGGUGGCGCGAUAGCGUCAACGUCCUCAACCUCCAAUGCAUCCCACCACAUGAUGAUGCCUGAAGAGACUUGGUUUUUUG,0.368
5,GACCAAUCUGCUCUCAGAGCUCGAGAACAUCUUCGGAUGCAGUGGAGGCAGGCUUCGGUGGCGCGAUAGCGCCAACAUCCUCAAUCUCCAAUGCAUCCCACCACAUGAUGAAGCCUGAAGAGCCUUGGUUUUUUG,-0.51
6,GACCAAUCUGCUCUCAGAGCUCGAGAACAUCUUCGGCUGCAGAGGUGGCAGGCUUCGGUGGAGCGAUAGCGCCAACGUCCUCAACCUCCAAUGCAUCCCACCACAUGAUGAUGCCUGAAGAGCCUUGGUUUUUUG,-2.96
7,GACCAAUCUGCUCUCAGAGCUCGAGUACAUCGUCGGAUGCAGAGGCGUCGGGCUUCGGUGGCGCGAUAGCGCCUACGUCCUCAACCUCCAAUGGAUCCCACCACAUGAUGAUGGCUGAAGAGCCUUGGUUUUUUG,-7.12
8,GACCAAUCUGCUCUCAGAGCUCGAGACCAUCUUCGGAUGCAGAGGAGGAAGGCUUCGGUGACGCGAUAGCGCCAACGUCCUCAACCUCCAAUGCAUCCCACCACAAGAUGAUGCUUGAAGAGCCUUGGUUUUUUG,-4.69
9,GACCAAUCUGCUCUCAGAGCUCGAGAGCAUCUUCGGAUGCAGAGGAGGCAGGCUUCGGUGGCGCGAUAGUGCCAACGUCCUCAACCUACAAUGCAUCCCACCACAUGAUGAUGCCUGAAGAGGCUAGGUUUUUUG,-2.52
10,GACCAAUCUGCUCUCAGAGCUCGAGAACAUCUUCGGCUGCAGAGGAGGCAGGCUUCGGUGGCGCGAUAGCGCCAACGUCCUCAACCUCCAAUGCAUCCCACCACAUGAUGAUACCUGAAGAGGCUUGGUUUUUUG,0.27
11,GACCAAUCUGCUCUCAGAGCUCGAGAACAUCUUCGGAUGCAGAGGUGGCAGGUUUCGGUGGCGCGAUAGCGCCAACGUACUCUACCUCCAAUGCAUCCCACCACAUGAUGAUGCCUGAAGAGCCUUGGUAUUUUG,-4.07
12,GACCAAUCUGCUCUCAGAGCUCGAGAACAUCUUCGGAUGCAGAGGCGGCAGGCUUCGGUGGCGCGAUAGCGCCAACGUCCUCAACCUCCAAUGCAUCCCGCCACAUGAUGAUGCCUGAAGAGCCUUGGUUUUUUG,-3.74
13,GACCAAUCUGCUCUCAGAGCUCGAGAACAUCUUCGGAUGCAGCGGAGGCAGGCUUCGGUGGCGCGAUAGCGACAACGUCCUCAACCUCCUAUGCAUCCCACCACAUGAUGAUGCCUGAAGAGCCUUGGUUUUUUG,-0.685
14,GACCAAUCUGCUCUCAGAGCUCGAGAACAUCUUCGGGUGCAGAGGAGGCAGGCUUCGGUGGCGCGAUAGCGCCAACGUCCUCAACCUCCAAUGCGUCCCACCACAUGAUGAUGCCUGAAGAGCCUUGGUUUUUUG,-0.754
15,GACCAAUCUGCUCUCAGAGCUCGAGAACAUCUUCGGAUGCUGAGGAGGCAGGCUUCGGUGGCGCGUUAGCGCCAACGUCCUCAACCUCCAAUGCAUCCCACCACAUGAUGAUGCCUGAAGAGCCUUGGUUUUUUG,-2.82
16,GACCAAUCUGCUCUCAGAGCUCGAGAACAUCUUCGGUUGCAGAGGAGGCAGGCUUCGGUGGCGCGAUAACGCCAACGUCCUCAACCUCCAAUGCAUCCCACCACAUGAUGAUGCCUGAAGAGCCUUGUUUUUUUG,-5.83
17,GACCAAUCUGCUCUCAGAGCUCGAGAACAUCUUCGGCUGCAGAGAAGGCAGGCUUCGGUGGCUCGAUAGCGCCAACGUCCUCAACCUCCAAUGCAUCCCACCACAUGAUGAUGCCUGAAGAGCCUUGGUUUUUUG,-1.7
18,GACCAAUCUGCUCUCAGAGCUCGAGAUCAUCUUCGGAUGAAGAGGAGGCAGGCUUCGGUGGCGCGAUAGCGCCAACGGCCUCAACCUCCAAUGCAUCCCACCACAUGAAGAUGCCUGAAGAGUCUUGGUCUUUUG,-3.99
19,GACCAAUCUGCUCUCAGAGCUCGAGAACGUCUUCGGAUGCAGAGUAGGCAGGCUUUGGUGGCGCGAUAGCGCCAACGUCCUCAACCUCAAUUGCAUCCCACCACAUGAUAAUGCCUGAAGAGCCUUUGUUUUUUG,-5.23
20,GACCAAUCUGCUCUCAGAGCUCGAGUACAUCUUCGGAUGCAGAGGAGGCAGGCUUCGGUGGCGCGAUAGCGCCAACGUCCUCAACCUCCAAUGCAUCCCACCACAUGAUGAUGCCUGAAGAGCCUUGGUUUUUUG,-2.07
21,GACCAAUCUGCUCUCAGAGCUCGAGAACAUCUUCGGAUGCUGAGGCGACAGGCUUCGGUGGCGCGAUAGCGUCAACGUCCUCAACCUACAAUGCAUCCCACUACAUGAUGAUGGUUGAAGAGCCUUGGUUUUUUG,-8.1
